One may read the stoichiometry N as the number of molecules, sites or subunits per partner or assembly.

The text below walks through data of doi:10.1101/2022.09.29.510120.

The target of assay [1] is recombinant ribulose-5-phosphate-3-epimerase isoform 1 from Chlamydomonas reinhardtii (CrRPE1) (Chlamydomonas reinhardtii). The assay is described as follows: SEC. On the technique in general: SEC sorts molecules by how far they enter the pores of the column.
Assay [2] has the same target. Briefly: SEC-SAXS.
The target is the same in assay [3]. Briefly: crystal structure.
Assay [4] has as its target native RPE1 extracted from Chlamydomonas reinhardtii cell cultures (Chlamydomonas reinhardtii (endogenous in strain D66)). Briefly: SEC.

For the substance “recombinant ribulose-5-phosphate-3-epimerase isoform 1 from Chlamydomonas reinhardtii (CrRPE1) (enzyme)”, the stoichiometry N was 5 subunits in assay [1] and 6 subunits in assay [3]. Moreover, the stoichiometry N (subunits per particle) in assay [2] was 6.
In assay [4], “native RPE1 extracted from Chlamydomonas reinhardtii cell cultures (enzyme)” gave a stoichiometry N of 6 subunits.
